The results in this text go back to publication PMC4861984, “Deciphering a unique biotin scavenging pathway with redundant genes in the probiotic bacterium Lactococcus lactis” (Scientific Reports, 2016).

In series [1] the target is T1, BirA_ec (Escherichia coli, UniProt P06709).
T1 construct: gene birA
In words: TLC of biotinoyl-5'-AMP from [alpha-32P]ATP; MALDI-TOF of biotinylated AccB87. The class given is biochemical. To be noted: 20 uM biotin, 5 uM ATP, 5 mM MgCl2, 100 mM KCl, pH 8, 37 °C; AccB87 acceptor.

Series [2] addresses T2, BirA1_LL (Lactococcus lactis IL1403, UniProt Q9CEQ6 1-323).
T2 sequence: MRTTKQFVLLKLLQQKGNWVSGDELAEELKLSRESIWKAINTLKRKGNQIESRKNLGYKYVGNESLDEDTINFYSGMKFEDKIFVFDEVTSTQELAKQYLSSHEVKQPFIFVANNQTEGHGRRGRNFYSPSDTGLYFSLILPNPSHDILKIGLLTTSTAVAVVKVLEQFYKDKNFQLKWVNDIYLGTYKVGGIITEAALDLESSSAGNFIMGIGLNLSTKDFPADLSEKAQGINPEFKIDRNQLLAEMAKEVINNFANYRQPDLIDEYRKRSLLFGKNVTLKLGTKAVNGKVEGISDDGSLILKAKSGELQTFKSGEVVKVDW
The series can be described thus: EMSA; 100 uM biotin + 100 uM ATP (forms biotinoyl-AMP); 3-12 pmol protein; Roche binding buffer (composition, pH, temperature not stated), 0.2 pmol DIG probe in 15 ul, 100 uM biotin + 100 uM ATP, ~1 h; native PAGE 7% (Methods) or 7.5%. Particulars: protein: recombinant; tags: His6 (pET28a); chain copies: 2; label: digoxigenin; blunt. In general terms: In EMSA bound probe runs differently from free probe, usually more slowly.

Series [3] has as its target T3, BirA2_LL (Lactococcus lactis IL1403, UniProt Q9CED9 1-250).
T3 sequence: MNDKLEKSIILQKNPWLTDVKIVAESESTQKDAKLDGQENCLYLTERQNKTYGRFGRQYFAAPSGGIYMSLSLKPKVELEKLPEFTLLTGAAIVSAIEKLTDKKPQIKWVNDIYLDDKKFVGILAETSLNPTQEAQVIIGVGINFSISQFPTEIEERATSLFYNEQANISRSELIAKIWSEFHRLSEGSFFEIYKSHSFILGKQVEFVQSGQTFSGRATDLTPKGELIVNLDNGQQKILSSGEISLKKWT
The series can be described thus: EMSA; 100 uM biotin + 100 uM ATP; 3-12 pmol protein; Roche binding buffer (composition, pH, temperature not stated), 0.2 pmol DIG probe in 15 ul, 100 uM biotin + 100 uM ATP, ~1 h; native PAGE 7% (Methods) or 7.5%. Particulars: protein: recombinant; tags: His6 (pET28a); chain copies: 2; label: digoxigenin; blunt.

T1 sequence (P06709 whole entry): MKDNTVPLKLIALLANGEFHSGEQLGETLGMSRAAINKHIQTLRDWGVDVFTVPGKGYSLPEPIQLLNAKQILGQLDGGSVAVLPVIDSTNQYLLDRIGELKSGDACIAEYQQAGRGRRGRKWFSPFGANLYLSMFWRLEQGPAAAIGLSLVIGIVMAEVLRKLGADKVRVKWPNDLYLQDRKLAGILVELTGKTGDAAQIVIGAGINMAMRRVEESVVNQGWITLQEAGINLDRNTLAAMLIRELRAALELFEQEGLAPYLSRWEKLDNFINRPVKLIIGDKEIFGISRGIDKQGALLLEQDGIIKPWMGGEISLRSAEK

In the case of `O=C(O)CCCC[C@@H]1SC[C@@H]2NC(=O)N[C@@H]21` [biotin], the “TLC of biotinoyl-5'-AMP from [alpha-32P]ATP; MALDI-TOF of biotinylated AccB87” value in series [1] was “The formation of the biotinylated AccB87 by E. coli BirA”.

B1: bioY_LL (bioY1 promoter probe) (dsDNA)
DNA 1: CAAATAATAAAATTAACAGTTAACCTAAATTTGATTTTAGGGTTACTGTTTGATATG
DNA 2: CATATCAAACAGTAACCCTAAAATCAAATTTAGGTTAACTGTTAATTTTATTATTTG
For B1, the results for the binding result in series [2] and in series [3] were “binds” and “no binding”, respectively.
